Test results taken from publication PMC11900858.

Experiments:
[1] = target: FcRn (mouse) (UniProt Q61559)
[2] = target: FcγRI (mouse) (UniProt P26151)
[3] = target: FcγRIIB (mouse) (UniProt P08101)
[4] = target: FcγRIII (mouse) (UniProt P08508)
[5] = target: FcγRIV (mouse)
[6] = target: FcαμR (mouse) (UniProt Q2TB54)
[7] = target: FcμR (mouse) (UniProt A1KXC4)
UniProt A1KXC4, sequence (A1KXC4 17-422): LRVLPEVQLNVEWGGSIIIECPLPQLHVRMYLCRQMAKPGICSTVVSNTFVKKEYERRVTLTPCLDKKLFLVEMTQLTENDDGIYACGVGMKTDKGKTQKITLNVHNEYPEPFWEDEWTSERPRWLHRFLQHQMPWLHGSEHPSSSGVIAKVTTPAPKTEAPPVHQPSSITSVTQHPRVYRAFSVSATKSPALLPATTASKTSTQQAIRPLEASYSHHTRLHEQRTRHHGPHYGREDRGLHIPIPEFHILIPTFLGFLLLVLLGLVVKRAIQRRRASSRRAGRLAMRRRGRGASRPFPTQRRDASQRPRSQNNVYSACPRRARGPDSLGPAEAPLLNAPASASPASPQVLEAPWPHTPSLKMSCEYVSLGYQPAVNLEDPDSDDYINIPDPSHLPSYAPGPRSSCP

UniProt P26151, sequence (P26151 25-404): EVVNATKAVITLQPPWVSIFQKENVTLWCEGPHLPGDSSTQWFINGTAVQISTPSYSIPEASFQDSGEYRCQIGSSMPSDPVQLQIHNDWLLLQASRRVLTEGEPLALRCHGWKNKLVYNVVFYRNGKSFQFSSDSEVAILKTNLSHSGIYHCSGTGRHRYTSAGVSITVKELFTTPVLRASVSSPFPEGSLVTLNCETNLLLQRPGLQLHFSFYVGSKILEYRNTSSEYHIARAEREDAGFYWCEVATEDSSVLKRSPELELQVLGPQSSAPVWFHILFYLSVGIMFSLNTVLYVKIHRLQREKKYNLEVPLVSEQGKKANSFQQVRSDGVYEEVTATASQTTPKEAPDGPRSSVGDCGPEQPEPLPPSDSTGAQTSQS
UniProt P08101, sequence (P08101 30-330): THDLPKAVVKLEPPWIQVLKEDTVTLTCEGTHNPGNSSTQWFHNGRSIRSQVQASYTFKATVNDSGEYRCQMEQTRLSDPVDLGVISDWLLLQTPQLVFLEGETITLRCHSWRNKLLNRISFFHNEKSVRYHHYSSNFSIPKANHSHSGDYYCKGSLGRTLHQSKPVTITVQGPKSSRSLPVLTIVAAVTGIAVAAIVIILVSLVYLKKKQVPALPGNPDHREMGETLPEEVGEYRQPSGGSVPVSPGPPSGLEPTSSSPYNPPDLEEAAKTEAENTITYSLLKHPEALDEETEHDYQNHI
UniProt Q2TB54, sequence (Q2TB54 36-535): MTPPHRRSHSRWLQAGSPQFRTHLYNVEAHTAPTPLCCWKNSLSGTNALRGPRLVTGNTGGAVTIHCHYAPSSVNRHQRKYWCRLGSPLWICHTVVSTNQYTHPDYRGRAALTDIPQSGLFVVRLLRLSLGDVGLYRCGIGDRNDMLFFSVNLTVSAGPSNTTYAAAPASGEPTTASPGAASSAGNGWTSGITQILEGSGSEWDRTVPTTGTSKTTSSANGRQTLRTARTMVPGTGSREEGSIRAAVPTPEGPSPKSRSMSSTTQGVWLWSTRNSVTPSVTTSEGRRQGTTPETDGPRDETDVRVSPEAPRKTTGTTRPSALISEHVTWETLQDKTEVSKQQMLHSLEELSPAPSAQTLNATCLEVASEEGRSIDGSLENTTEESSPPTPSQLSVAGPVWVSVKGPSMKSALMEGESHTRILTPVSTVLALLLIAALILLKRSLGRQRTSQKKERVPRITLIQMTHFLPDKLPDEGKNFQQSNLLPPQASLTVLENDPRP
UniProt P08508, sequence (P08508 31-261): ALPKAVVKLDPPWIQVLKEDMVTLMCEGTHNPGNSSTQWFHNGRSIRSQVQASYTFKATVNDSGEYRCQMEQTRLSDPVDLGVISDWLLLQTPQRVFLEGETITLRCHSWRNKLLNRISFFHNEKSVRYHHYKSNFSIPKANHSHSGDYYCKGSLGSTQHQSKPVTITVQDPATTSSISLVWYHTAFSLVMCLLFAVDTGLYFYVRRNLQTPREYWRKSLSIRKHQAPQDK
UniProt Q61559, sequence (Q61559 22-365): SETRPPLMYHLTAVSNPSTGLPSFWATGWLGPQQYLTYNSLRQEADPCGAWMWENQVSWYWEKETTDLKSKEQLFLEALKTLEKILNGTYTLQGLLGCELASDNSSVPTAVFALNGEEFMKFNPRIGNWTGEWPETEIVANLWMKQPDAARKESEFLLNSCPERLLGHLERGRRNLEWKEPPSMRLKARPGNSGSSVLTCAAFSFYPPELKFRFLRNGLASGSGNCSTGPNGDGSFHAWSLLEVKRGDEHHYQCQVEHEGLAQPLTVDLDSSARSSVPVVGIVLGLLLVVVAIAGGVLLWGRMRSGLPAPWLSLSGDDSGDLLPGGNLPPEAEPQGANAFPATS

T15 IgG3 (murine monoclonal anti-phosphocholine antibody of the T15 idiotype, IgG3 form)
< 5%: adhesion of T15 IgG3-opsonized Spn6A pneumococci to CHO cells stably expressing the receptor (MOI 1, T15 antibody 50 μg/ml); no notable increase; anti-capsule antibody control 85% binding [1] | adhesion of T15 IgG3-opsonized Spn6A pneumococci to CHO cells stably expressing the receptor (MOI 1, T15 antibody 50 μg/ml); no notable increase; anti-capsule antibody control 85% binding [2] | adhesion of T15 IgG3-opsonized Spn6A pneumococci to CHO cells stably expressing the receptor (MOI 1, T15 antibody 50 μg/ml); no notable increase; anti-capsule antibody control 85% binding [3] | adhesion of T15 IgG3-opsonized Spn6A pneumococci to CHO cells stably expressing the receptor (MOI 1, T15 antibody 50 μg/ml); no notable increase; anti-capsule antibody control 85% binding [4] | adhesion of T15 IgG3-opsonized Spn6A pneumococci to CHO cells stably expressing the receptor (MOI 1, T15 antibody 50 μg/ml); no notable increase; anti-capsule antibody control 85% binding [5]

T15 IgM (murine monoclonal anti-phosphocholine antibody of the T15 idiotype, IgM form) (from UniProt P01592 22-159)
< 5%: adhesion of T15 IgM-opsonized Spn6A pneumococci to CHO cells stably expressing the receptor (MOI 1, T15 antibody 50 μg/ml); no notable increase; anti-capsule antibody control 85% binding [6] | adhesion of T15 IgM-opsonized Spn6A pneumococci to CHO cells stably expressing the receptor (MOI 1, T15 antibody 50 μg/ml); no notable increase; anti-capsule antibody control 85% binding [7]
